For the experiment, the target named is human ATP synthase complex (human (endogenous in HEK293T)). As to the kind of experiment: native gel or EMSA.

In turn, human ATP synthase complex gave a stoichiometry N of 2.

The values above are taken from paper doi:10.1101/2022.07.02.498517.
